Test results taken from US7413873.

Biological target: full length TCF1
Test: cell-based or functional assay

β-catenin (wild type), sequence (P35222 2-781): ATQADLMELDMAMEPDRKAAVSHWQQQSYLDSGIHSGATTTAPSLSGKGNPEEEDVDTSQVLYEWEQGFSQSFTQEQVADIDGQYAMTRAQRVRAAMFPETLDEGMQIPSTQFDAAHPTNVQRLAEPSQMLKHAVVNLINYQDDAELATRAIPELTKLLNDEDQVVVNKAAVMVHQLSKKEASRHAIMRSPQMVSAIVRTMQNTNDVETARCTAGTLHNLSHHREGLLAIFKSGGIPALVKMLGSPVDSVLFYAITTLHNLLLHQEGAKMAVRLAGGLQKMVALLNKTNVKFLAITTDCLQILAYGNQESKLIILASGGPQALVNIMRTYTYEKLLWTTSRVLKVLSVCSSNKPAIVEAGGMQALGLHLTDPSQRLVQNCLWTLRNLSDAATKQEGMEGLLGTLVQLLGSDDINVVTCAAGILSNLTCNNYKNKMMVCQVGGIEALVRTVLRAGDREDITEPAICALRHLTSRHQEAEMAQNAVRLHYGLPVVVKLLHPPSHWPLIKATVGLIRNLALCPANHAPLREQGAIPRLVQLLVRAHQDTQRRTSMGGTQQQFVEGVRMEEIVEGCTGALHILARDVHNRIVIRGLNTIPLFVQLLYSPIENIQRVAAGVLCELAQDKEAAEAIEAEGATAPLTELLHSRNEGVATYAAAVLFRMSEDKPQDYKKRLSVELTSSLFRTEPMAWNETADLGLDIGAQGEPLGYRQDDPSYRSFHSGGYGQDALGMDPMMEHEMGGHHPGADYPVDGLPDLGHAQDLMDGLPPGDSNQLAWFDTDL

- activation of luciferase reporter gene driven by the LEF1 promoter (-672, +305), co-transfection in 2017 T lymphocytes: 7 fold
Substance: β-catenin (wild type)
